From publication PMC11637429

Molecular target: 6xHis-FoxR^peri-T192A (purified whole periplasmic region of FoxR with T192A) (P. aeruginosa)
Assay: AUC; sedimentation velocity titration: FoxR^peri fixed at 10 μm, FoxA^SD at 1, 2, 5, 10, 20, 40 and 80 μm; sw isotherm (absorbance and interference) globally fitted in SEDPHAT to an A+B <-> AB model; 8°C, 20 mM Tris pH 8.3, 500 mM NaCl, 1 mM DTT, 3% glycerol

**Q.** Which Kd does the source give for “6xHis-FoxA^SD (purified signaling domain of FoxA) (from UniProt Q9I116 53-820) (domain or fragment)” here?
**A.** Its Kd is 4.3 µM.

**Q.** And the stoichiometry N?
**A.** The stoichiometry N was 1.
